The subject of data set [1] is IL1-induced downstream signaling (phospho-p38, NFκB) in THP-1 cells. Kind of data set: IL1 signaling in AML (THP-1) cells, Western blot. In kind it is cell-based, human. To be noted: antibody 20 μg/ml, IL1β 100 ng/ml. As to the method: (§1) AML patient samples or cancer cells (AML, chronic myelogenous leukemia (CML), pancreatic, head and neck squamous cell carcinoma (HNSCC), bladder, non-small-cell lung carcinoma (NSCLC), colorectal and triple-negative breast cancer (TNBC)) were seeded in 6-well plates (5×10^5 cells/well) and incubated overnight at 37° C./5% CO2 in humified incubator. In experiments conducted in cancer cell lines, cells were washed 2× with PBS and serum-starved for 3 hours. Following, cells were treated with IL1RAP antibodies at concentration of 20 μg/ml and incubated for 1 h at 37° C./5% CO2 in humidified incubator. After 1 h, cells were treated with IL1β (Invivogen, cat: rcyec-hil1b), IL33 (Adipogen, cat: AG-40B-0160-C010) or IL36 cytokines (R@D, cat: 6836IL) at 100 ng/ml and incubated for 15 more minutes. Cells were harvested on ice after 1× wash with cold PBS and were centrifuged for 5 minutes at 5000 rpm at 4° C. Cells were then lysed with NP-40 buffer for 5 minutes on ice and centrifuged for 15 minutes at 15000 rpm at 4° C. Supernatants were collected and protein concentrations were determined by BCA (Thermofisher, Cat #PI23225). […] After 3× washes, ECL was applied (Thermofisher, Cat #32106) and proteins were detected after exposure to autoradioraphic films (Worldwide medical products, Cat #41101001) and protein intensity was quantitated using ImageJ software.
Background: A western blot detects proteins with antibodies after separation by electrophoresis.

The subject of data set [2] is IL1-induced downstream signaling (phospho-NFκB) in K562 cells. Kind of data set: IL1 signaling in CML (K562) cells, Western blot. In kind it is cell-based, human. The conditions noted are these: antibody 20 μg/ml, IL1β 100 ng/ml. As to the method:
as §1

The subject of data set [3] is healthy control samples. The data set is described as follows: Clonogenic capacity of healthy control samples. Type of data set: cell-based, human. To be noted: 333 nM, two weeks. As for the experimental part:
AML patient samples or healthy control samples (4000 cells) were washed and resuspended in 30 μl Iscove's Modified Dulbecco's Medium (IMDM) media supplemented with 2% FBS. Cells […] were mixed with 3 ml methylcellulose (MthoCult H4034 Optimum) supplemented with pen/strep or primocin (100 μg/ml) and IL1RAP antibodies (333 nM) and 1 ml were seeded in 35 mm dishes in duplicates. The dishes were incubated at 37° C./5% CO2 in humidified incubator for 14-16 days. Colonies were counted using inverted microscope.

The subject of data set [4] is AML cells (THP-1). Kind of data set: Expression of differentiation markers in AML cells, flow cytometry. In kind it is cell-based, human. To be noted: 150 μg/ml, 48 hours. As for the experimental part: Methods: AML cells (THP-1) were seeded at 0.5×10^6/well in 6-well plate and were treated with IL1RAP antibody or IgG control at 150 μg/ml for 48 hours. After 48 hours cells were collected, and expression of differentiation markers was monitored by flow cytometry. Cells were stained for CD14 (BD, cat: 325620) and CD15 (Thermo, cat: 17-01-59-42) differentiation markers and data were analyzed with FlowJo.

Data set [5] concerns IL36γ-induced NFκB activity. The data set is described as follows: HEKBlue-IL36 cell-based reporter assay. To be noted: HEKBlue-IL36, FIG. 22. As to the method:
Inhibition by STLX2012 was measured by the HEKBlue-IL36 cell-based reporter assay. The HEK-Blue IL36 (Invivogen, Cat #hil36r-hkb) cell line was used to monitor NFκB activity upon stimulation with IL36γ cytokine. In this cell line, the secreted embryonic alkaline phosphatase reporter gene (SEAP) is inducibly expressed under the control of IFN-β minimal promoter fused to NFκB/AP-1. Specificity to IL36γ cytokine was achieved by blockage of TNF-α and IL1 response. Cells are maintained in the presence of zeocin (100 μg/ml) and blasticidin (10 μg/ml).
(In a reporter assay the amount or activity of a reporter protein is the signal.)

Data set [6] concerns THP-1 cells. Kind of data set: Jurkat-Lucia NFAT-CD16 ADCC reporter assay against THP-1 cells. Type of data set: cell-based, human. To be noted: THP-1 target cells. From the text: Methods: ADCC activity is mediated through binding of NK cell's CD16 receptors to the Fc region of antibodies. A Jurkat-Lucia NFAT-CD16 ADCC Reporter cell assay (Invivogen, Cat #jktl-nfat-cd16; https://www.invivogen.com/jurkat-lucia-nfat-adcc-adcp-cells) was used to analyze IL1RAP mAb STLX2012 for ADCC activity. Briefly, the Jurkat cell line was engineered to express the cell surface Fc receptor CD16A (FcγRIIIA) and the Lucia luciferase reporter gene. ADCC is triggered by CD16A cross-linking upon antigen-bound antibody binding at the surface of immune effector cells. Cells are maintained in the presence of zeocin (100 μg/ml) and blasticidin (10 μg/ml).

For data set [7], the system named is AML cells (patient #6). Kind of data set: AML patient-derived sample engraftment in immunodeficient mice. Type of data set: in vivo, NSG-SGM3 immunodeficient mice. An excerpt:
Methods: NSG™-SGM3 immunodeficient mice (Jackson Laboratory) were irradiated with 200 rads and then infused with AML cells (patient #6) collected from a leukapheresis sample and then treated bi-weekly with three doses of STLX2012 or control IgG1 antibody for 7 weeks. Doses were 1 mpk, 10 mpk, or 30 mpk for STLX2012, and 30 mpk for control IgG1.

[8] abbreviates: day 50, 1, 10, 30 mpk bi-weekly 7 weeks, vs control IgG.

B1: 74804_12A21B: anti-IL1RAP mAb; VH SEQ ID NO:6, VL SEQ ID NO:23, κ light chain (antibody, V domains shown)
VH: QVQLLQSGAEVKKPGSSVKVSCKASGGTFSIYAIDWVRQAPGQGLEWMGGIIPIFGTANSAQKFQGRVTITADKSTSTAYMELSSLRSEDTAVYYCARNGATSDAFDMWGQGTMVTVSS
VL: EIVLTQSPGTLSLSPGERATLSCRASLSVSSNYLAWFQQRPGQAPRLLIHGVSRRATGIPDRFSGSGSGTDFTLTISRLEPEDFAVYYCQQYGSSPLTFGGGTKVEIK
modifications: 74804_12A21B VH and 74804_29D13A VH; 74804_12A21B VL
As for B1, the “Inhibition of IL1 signaling (phosphorylation of p38 and NFκB)” value in data set [1] was “inhibited IL1 signaling in these AML (THP-1) cells”. Further, in data set [2], the “Inhibition of IL1 signaling (phosphorylation of NFκB)” value is listed as “inhibited IL1 signaling in these CML (K562) cells”. Besides, the “Effect on clonogenic capacity of healthy control samples” value in data set [3] was “did not affect the clonogenic capacity of healthy control samples”. In data set [4], the “Expression of CD14 differentiation marker” value is recorded as “induced the expression” and the “Expression of CD15 differentiation marker” value is “induced the expression”. The “Inhibition of IL36γ-induced NFκB activity” value in data set [5] is reported as “inhibition of the IL36γ-induced NFκB activity in a dose-dependent manner”. The “ADCC activity (reporter)” value in data set [6] is “showed ADCC activity”. The “bone marrow (BM) chimerism, dose dependence” value in data set [7] (1, 10, 30 mpk) was “dose-dependent reduction in bone marrow (BM) chimerism”. In data set [7] (setting [8]), the “human CD45+AML cells in spleens” value was “significantly reduced human CD45+AML cells” and the “human CD45+AML cells in the bone marrow” value is recorded as “significantly reduced human CD45+AML cells”.

Source of the values: US20240392013A1, “IL1RAP ANTIBODIES AND USES THEREOF” (STELEXIS THERAPEUTICS, LLC, priority 2021, published 2024).
